Consider two molecules from patent JP2002536968A (dated 2002).

Assay [1] concerns the target T1, 可溶性融合タンパク質 KDR-AP (human, UniProt P35968 20-764).
T1 construct: extracellular domain; Made in NIH3T3 cells; also called KDR-アルカリ性ホスファターゼ融合タンパク質; 固定化KDR; not shown: human placental alkaline phosphatase (AP), from vector AP-tag
The assay can be described thus: competitive VEGF binding ELISA: antibody mixed with KDR-AP, then on VEGF165-coated plate.

In assay [2] the target is HUVEC上の細胞表面発現KDR (human) (UniProt P35968). As to the kind of experiment: cell-based or functional assay.
For assay [3], the target named is T1, 可溶性融合タンパク質 KDR-AP. As to the kind of experiment: BIAcore, KDR-AP immobilised, antibody injected at 25-200 nM.
For assay [4], the target named is T1, 可溶性融合タンパク質 KDR-AP. The assay can be described thus: BIAcore, KDR-AP immobilised (refers to Table 2). (In general: In SPR one partner is held on a chip, and binding of the other changes the refractive index at the surface.)
Assay [5] has as its target T1, 可溶性融合タンパク質 KDR-AP. As to the kind of experiment: direct binding ELISA, soluble scFv on KDR-coated plate; concentration for 50% of maximal binding.
Assay [6] concerns the target T1, 可溶性融合タンパク質 KDR-AP. As to the kind of experiment: competitive VEGF blocking ELISA: scFv mixed with KDR-AP, then on VEGF165-coated plate. In general terms: ELISA stands for enzyme-linked immunosorbent assay.
Assay [7] addresses T1, 可溶性融合タンパク質 KDR-AP. As to the kind of experiment: BIAcore, KDR-AP immobilised, soluble scFv injected.

T1 sequence (P35968 20-764): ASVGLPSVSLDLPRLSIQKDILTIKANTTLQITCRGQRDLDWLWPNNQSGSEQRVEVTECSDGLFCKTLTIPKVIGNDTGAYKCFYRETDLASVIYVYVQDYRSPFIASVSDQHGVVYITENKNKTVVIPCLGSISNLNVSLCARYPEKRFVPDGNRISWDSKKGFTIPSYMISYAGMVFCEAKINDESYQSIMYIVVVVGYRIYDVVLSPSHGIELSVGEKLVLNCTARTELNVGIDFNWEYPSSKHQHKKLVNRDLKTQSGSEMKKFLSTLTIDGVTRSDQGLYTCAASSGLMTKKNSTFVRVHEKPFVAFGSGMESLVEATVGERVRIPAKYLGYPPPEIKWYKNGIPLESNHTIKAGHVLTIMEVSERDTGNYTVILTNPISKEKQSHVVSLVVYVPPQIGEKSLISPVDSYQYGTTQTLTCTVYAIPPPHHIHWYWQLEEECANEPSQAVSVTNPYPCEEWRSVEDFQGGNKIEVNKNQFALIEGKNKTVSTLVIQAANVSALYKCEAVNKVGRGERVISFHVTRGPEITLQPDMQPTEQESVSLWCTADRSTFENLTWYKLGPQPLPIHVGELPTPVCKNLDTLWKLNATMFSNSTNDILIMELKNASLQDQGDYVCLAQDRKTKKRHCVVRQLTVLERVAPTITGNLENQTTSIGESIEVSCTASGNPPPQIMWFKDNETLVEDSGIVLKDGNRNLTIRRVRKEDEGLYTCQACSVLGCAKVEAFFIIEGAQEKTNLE

B1: キメラ抗KDR抗体 c-p1C11 (antibody, from another filing)
scFv: QVKLQQSGAELVGSGASVKLSCTTSGFNIKDFYMHWVKQRPEQGLEWIGWIDPENGDSDYAPKFQGKATMTADSSSNTAYLQLSSLTSEDTAVYYCNAYYGDYEGYWGQGTTVTVSSGGGGSGGGGSGGGGSDIELTQSPAIMSASPGEKVTITCSASSSVSYMHWFQQKPGTSPKLWIYSTSNLASGVPARFSGSGSGTSYSLTISRMEAEDAATYYCQQRSSYPFTFGSGTKLEIK
In general, IC50 refers to the concentration needed to halve the response being measured. What is called Kd is a measure of binding affinity in units of concentration. As to B1, the IC50 in assay [1] worked out at 0.8 nM. In assay [2], the HUVECのVEGF誘導性有糸分裂誘発の50%を抑制するのに必要な抗体濃度 ([3H]-TdR) came out at 0.8 nM. In assay [3], this molecule yielded a dissociation constant Kd of 0.82 nM. The fold higher affinity than parent scFv p1C11 in assay [4] was 2.5 fold.

B2: scFv p1C11 (scFv)
chain: QVKLQQSGAELVGSGASVKLSCTTSGFNIKDFYMHWVKQRPEQGLEWIGWIDPENGDSDYAPKFQGKATMTADSSSNTAYLQLSSLTSEDTAVYYCNAYYGDYEGYWGQGTTVTVSSGGGGSGGGGSGGGGSDIELTQSPAIMSASPGEKVTITCSASSSVSYMHWFQQKPGTSPKLWIYSTSNLASGVPARFSGSGSGTSYSLTISRMEAEDAATYYCQQRSSYPFTFGSGTKLEIK
Usually EC50 stands for the concentration needed to bring the measured effect to its halfway point. A lower EC50 goes with greater potency. B2: in assay [5], the midpoint of the response, the EC50, lay at 0.3 nM. The concentration for half-maximal inhibition (IC50) in assay [1] stood at 2 nM; in assay [6] it was 3 nM. Also, the Kd in assay [7] worked out at 2.1 nM.
